Source: paper PMC2880568

Target: T1, EloBC (elongin B - elongin C heterodimer), Q15370
T1 chain 1: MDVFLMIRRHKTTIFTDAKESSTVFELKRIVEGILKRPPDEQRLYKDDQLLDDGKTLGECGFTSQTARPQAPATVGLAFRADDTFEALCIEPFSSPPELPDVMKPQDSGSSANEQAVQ
T1 chain 2: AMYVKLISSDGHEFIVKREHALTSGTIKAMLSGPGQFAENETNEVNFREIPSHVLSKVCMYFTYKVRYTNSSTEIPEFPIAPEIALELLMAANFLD
Assay: ITC

Binder: HNKVGSLQYLALAAL (domain or fragment, modifications not checked) [Vif BC-box protein]
- Kd: 2.2 µM
